Measured values from the supplement of paper PMC10126150.
± gives the standard deviation of the averaged measurements.

Tested on: ATP
Test: switch fluorescence ratio, 500 uM ATP over buffer (Cy3 cluster intensity, sum of 5 cycles each) (fold (ratio)); higher = stronger signal-on switching upon ATP binding; sequences stand for … in TCGTCGGCAGCGTCAGATGTGTATAAGAGACAGTTTTTTTTTTTTTTTTTTTTTTTTT…TC
Settings: aptamer strand: ATP DNA aptamer (quencher-CACCTGGGGGAGTATTGCGGAGGAAGG + anchor), 100 nM annealed; ATP concentration: 500 uM
Summary of the method: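 Cy3-labelled switching-strand clusters on a modified Illumina MiSeq flow-cell were annealed to 100 nM quencher-labelled ATP aptamer and imaged first in selection buffer, then after 15 min with 500 uM ATP at 22 °C. NaOH stripping and re-annealing separated each of five buffer/ATP cycles, and clusters outside 100-1000 RFU were excluded. The fluorescence ratio sums target-cycle Cy3 intensity over buffer-cycle Cy3 intensity per cluster and averages it per switch-domain sequence.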
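Also: ATP exposure 15 min at 22 °C before imaging.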

Sequence | switch fluorescence ratio
ACGTTAAGTT | 1.1 ± 0.029
TATTTTGTTA | 1.01 ± 0.047
TAATTTAGAT | 1.028 ± 0.0095
CCGGGTAAAA | 1.03 ± 0.057
TAGGAGCTTG | 1 ± 0.042
AGCAATAGGT | 1.94 ± 0.46
TTCGAATGGT | 0.9724 ± 0.0062
TTTATAGGAA | 1.02 ± 0.03
TAGTGGGGGG | 0.989 ± 0.026
TTTTGGAAGT | 0.993 ± 0.042
GGGAAAGTCG | 1 ± 0.036
AAACGGGGGG | 0.99 ± 0.024
TTTTCATCGC | 1.18 ± 0.18
CGTAACAATG | 1.1 ± 0.034
GCATGATGGC | 1.03 ± 0.063
AGGGGAAAAT | 0.996 ± 0.028
AGGCTGGTCT | 0.952 ± 0.1
ACTTTTGTTT | 1.02 ± 0.015
AGTAGTAAGC | 1.03 ± 0.023
TTTAATTTTG | 1 ± 0.036
ACATTTTGG | 1.002 ± 0.0081
AGGGGAGCGT | 1.015 ± 0.0064
ATTTGCCTGT | 0.982 ± 0.033

Sequence | switch fluorescence ratio
GTGAAGAAGA | 0.991 ± 0.0048
GGGATCTATA | 0.9721 ± 0.0081
CTACATGTAA | 1.03 ± 0.081
TCGGCCAGTT | 1.01 ± 0.037
AAGGGGTTCT | 1.01 ± 0.016
CGTAGGGGTA | 1.11 ± 0.32
ACTTTATTGG | 1.03 ± 0.024
TCGAATGT | 1.01 ± 0.012
CAGGCCGGAG | 1.01 ± 0.022
AGCACATGTA | 0.998 ± 0.021
GCATGGGGTA | 1.05 ± 0.051
AATCGGAATT | 1.01 ± 0.03
CATGGAATTG | 0.989 ± 0.032
GAATCGTTTT | 0.9553 ± 0.0068
CATCTCTAGC | 0.993 ± 0.012
AGAATTAGGC | 0.999 ± 0.021
CACGGGGGGC | 1.02 ± 0.054
GGTGACTTGG | 1.01 ± 0.055
TAAATTATGT | 0.9816 ± 0.0076
GGGGTGAGCC | 0.978 ± 0.017
AAGGTGGGCC | 0.985 ± 0.019
GCTGGGTGCT | 0.984 ± 0.015
CGGGGAGGTA | 0.9803 ± 0.0049

Sequence | switch fluorescence ratio
TTTTAACTAA | 1.005 ± 0.0046
TATTTTAGGT | 1.01 ± 0.048
CGGGGCACCG | 0.9868 ± 0.0032
GAAGAACGAA | 1.022 ± 0.004
CCAACAGCCC | 1.12 ± 0.079
GGTGGCGCTA | 1.01 ± 0.02
TATCTAAAGT | 1.01 ± 0.029
TTGCATGGGT | 1.01 ± 0.039
GGATCGTCGG | 0.96 ± 0.019
AGATAACCCA | 1 ± 0.052
GTTTATTGTC | 1.04 ± 0.037
AGAGTGGCAA | 1.04 ± 0.016
TGCTTTCTTC | 1.15 ± 0.31
CTGAGGCACG | 1.09 ± 0.068
ACTGGGTACC | 1.05 ± 0.012
TCGGGTTAGT | 1.005 ± 0.0081
GGTTTATATG | 1.035 ± 0.0011
TCGGACTTTT | 1.04 ± 0.012
GCTGTTTTTT | 1 ± 0.044
GATTAATGAG | 1.01 ± 0.027
GAGCGTGACG | 1 ± 0.045
GAAAATTAGT | 1.016 ± 0.0023
CTCTATCAAT | 1.254 ± 0.0064

Sequence | switch fluorescence ratio
GACTGTAAGG | 0.997 ± 0.08
GGCCTGGGTA | 1 ± 0.031
GGTCTCAAGA | 0.993 ± 0.023
CCGGTGTCTG | 1.05 ± 0.09
CCTTTTGCCA | 1.1 ± 0.028
GAGTTATGGA | 1.03 ± 0.019
CGTGAAAGCT | 1.18 ± 0.037
GTATTGGGTT | 1 ± 0.056
GCTAAAATAG | 1.11 ± 0.15
CTCCTACAGC | 1.32 ± 0.2
GGTAGCAAGT | 1.05 ± 0.034
GGATTCATGG | 1.01 ± 0.021
CCGGCGGGAG | 1.099 ± 0.0064
CCTTGTATAA | 1.07 ± 0.014
TTTCGTGCGG | 1 ± 0.015
TTAGAAGATT | 1 ± 0.044
AATTGACCCC | 1.09 ± 0.023
CCGAAGGGGC | 1.52 ± 0.083
TTAGACGGC | 0.978 ± 0.097
AAATTTGTTA | 0.985 ± 0.04
CGGGGTCAAC | 1.24 ± 0.39
ATTGTTGTTT | 0.981 ± 0.019
TATTGAGACC | 1.03 ± 0.036

Sequence | switch fluorescence ratio
CTGCTGGGGT | 1.04 ± 0.018
CGGGTTAGTA | 1.02 ± 0.042
ATTAAAAAAC | 1.01 ± 0.016
TATCCAGGGG | 2.063 ± 0.0021
GGTTGGTTTG | 0.99 ± 0.06
ATATATGTAC | 1.085 ± 0.0016
GAGGGGGCCC | 1.01 ± 0.026
GGGGACGAAT | 1.002 ± 0.0025
GCCGGGAGTC | 1 ± 0.02
GCCACTTACA | 1.36 ± 0.025
GTTCCGGGTT | 0.983 ± 0.075
GTAGTTACGG | 1.05 ± 0.019
GCAGGGGAAG | 0.99 ± 0.019
AATGTTTAAA | 0.9764 ± 0.0016
TATGGGGAGC | 0.998 ± 0.044
TAAAAAAGAA | 0.97 ± 0.03
AGTTGGCGGC | 1.02 ± 0.039
AGAGACGCTT | 1.03 ± 0.027
TGCAAAATTT | 0.995 ± 0.018
ATTAAAATAT | 1.12 ± 0.19
AAATGGGGAC | 0.9777 ± 0.0029
ATGAATAAGG | 0.983 ± 0.028
GTGTTAGTCC | 1.05 ± 0.11

Sequence | switch fluorescence ratio
TGGCGGAACA | 1.02 ± 0.017
AATTAATTTT | 0.995 ± 0.038
GAGGCTGTGC | 1.052 ± 0.0057
GATATTAGGA | 1 ± 0.088
TCGTATTGAG | 0.9482 ± 0.0077
AGGGCAGAGA | 1.02 ± 0.046
TTGGCATAGT | 0.989 ± 0.031
TTTTGTCAAA | 1.02 ± 0.035
TTAGTATATA | 0.9946 ± 0.0059
GGAGAGGGGC | 0.996 ± 0.091
ATATTCGCGG | 1.01 ± 0.015
CAGAACGGCA | 1.095 ± 0.0092
TTGTACTTGG | 1.04 ± 0.072
AGGGTTATAG | 0.982 ± 0.025
ATTTGGAGGG | 0.969 ± 0.0034
TCGGTTTCG | 0.989 ± 0.095
TAGCTGTTAT | 0.997 ± 0.03
ATATGCGATG | 0.97 ± 0.051
GGCATCGTAG | 0.998 ± 0.021
GTTGTTGTTT | 0.999 ± 0.0094
GTTTTGTGGG | 0.968 ± 0.034
TTGATATGAC | 1.014 ± 0.0094
ATAATAGGGT | 0.972 ± 0.03

Sequence | switch fluorescence ratio
TGTTGGACGG | 1.07 ± 0.037
GAGGATGCTC | 1.01 ± 0.015
TGAAGTAATC | 1.42 ± 0.43
GTTGAAAGCG | 1.03 ± 0.015
AAGAGGGGAT | 0.985 ± 0.031
GGGGTTTAGC | 0.996 ± 0.015
ATATGAGGGA | 1.01 ± 0.026
GCTCTGGGGG | 1.03 ± 0.039
ATGTTTGAAG | 0.9844 ± 0.0042
TTGCTATTTC | 1 ± 0.058
CGGGGAGGCT | 0.988 ± 0.047
TTTTTTTTAT | 1 ± 0.024
CCGAGTTATA | 2.15 ± 0.013
CGTAAAGCAG | 1.01 ± 0.061
TCATGTACGT | 1.06 ± 0.028
GATTATTTGG | 0.986 ± 0.011
TTTTTAATGT | 0.998 ± 0.062
AAATTATGGA | 0.969 ± 0.075
GGTCGGGTTG | 0.979 ± 0.011
